This is an account of results in patent US20250223359A1 (published 2025).

To fix the notation:
T1: human CD19 (human, UniProt P15391 20-556)
T1 construct: whole, on cells; also called huCD19; hCD19
T1 sequence (looked up): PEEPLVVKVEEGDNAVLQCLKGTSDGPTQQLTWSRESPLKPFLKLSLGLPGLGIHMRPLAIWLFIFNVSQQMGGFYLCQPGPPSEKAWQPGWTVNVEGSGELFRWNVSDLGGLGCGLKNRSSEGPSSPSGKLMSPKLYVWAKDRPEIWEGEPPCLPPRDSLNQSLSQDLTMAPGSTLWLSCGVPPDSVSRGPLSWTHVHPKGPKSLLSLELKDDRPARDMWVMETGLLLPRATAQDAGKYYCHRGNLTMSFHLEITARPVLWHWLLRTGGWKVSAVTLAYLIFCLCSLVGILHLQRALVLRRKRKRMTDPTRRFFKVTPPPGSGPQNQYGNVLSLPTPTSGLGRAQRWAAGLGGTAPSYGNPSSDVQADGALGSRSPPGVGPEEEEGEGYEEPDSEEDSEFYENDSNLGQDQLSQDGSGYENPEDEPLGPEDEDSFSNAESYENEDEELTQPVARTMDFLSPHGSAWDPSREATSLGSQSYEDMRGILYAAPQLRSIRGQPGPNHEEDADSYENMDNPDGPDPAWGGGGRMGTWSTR

B1: Human CD2 (recombinant extracellular domain, Avi-tagged) (receptor)
chain: KEITNALETWGALGQDINLDIPSFQMSDDIDDIKWEKTSDKKKIAQFRKEKETFKEKDTYKLFKNGTLKIKHLKTDDQDIYKVSIYDTKGKNVLEKIFDLKIQERVSKPKISWTCINTTLTCEVMNGTDPELNLYQDGKHLKLSQRVITHKWTTSLSAKFKCTAGNKVSKESSVEPVSCPEKGLD
modifications: site selectively biotinylated during expression (C-terminal Avi-Tag, BirA co-transfection)
notes: Produced in HEK293 cells; also called recombinant human CD2
B2: CD58 Full ECD (ligand)
chain: SQQIYGVVYGNVTFHVPSNVPLKEVLWKKQKDKVAELENSEFRAFSSFKNRVYLDTVSGSLTIYNLTSSDEDEYEMESPNITDTMKFFLYVLESLPSPTLTCALTNGSIEVQCMIPEHYNSHRGLIMYSWDCPMEQCKRNSTSIYFKMENDLPQKIQCTLSNPLFNTTSSIILTTCIPSSGHSRHRGGGGSHHHHHHHH
B3: CD3hi TSP2 (R variant) (other)
heavy: EVQLVQSGAEVKKPGESLKISCKASGYSFTNYWMNWVRQMPGKGLEWMGMIHPSDSEIRLNQKFQGQVTLSVDKSIGTAYMQWSSLKASDTAMYYCSRWYYLSSPMDYWGQGTTVTVSSASTKGPSVFPLAPSSKSTSGGTAALGCLVKDYFPEPVTVSWNSGALTSGVHTFPAVLQSSGLYSLSSVVTVPSSSLGTQTYICNVNHKPSNTKVDKRVEPKSCGGGGSGGGGSEVQLVESGGGLVQPGGSLKLSCAASGFTFNTYAMNWVRQASGKGLEWVGRIRSKYNNYATYYADSVKDRFTISRDDSKSTLYLQMNSLKTEDTAVYYCVRHGNFGNSYVSWFAYWGQGTLVTVSSGGGGSGGGGSGGGGSGGGGSQAVVTQEPSLTVSPGGTVTLTCRSSTGAVTTSNYANWVQQKPGQAPRGLIGGTNKRAPWTPARFSGSLLGDKAALTLSGAQPEDEAEYFCALWYSNLWVFGGGTKLTVLGGGGSDKTHTCPPCPAPELLGGPSVFLFPPKPKDTLMISRTPEVTCVVVAVSHEDPEVKFNWYVDGVEVHNAKTKPREEQYASTYRVVSVLTVLHQDWLNGKEYKCKVSNKALAAPIEKTISKAKGQPREPQVCTLPPSREEMTKNQVSLSCAVKGFYPSDIAVEWESNGQPENNYKTTPPVLDSDGSFFLVSKLTVDKSRWQQGNVFSCSVMHEALHNHYTQKSLSLSPGK
light: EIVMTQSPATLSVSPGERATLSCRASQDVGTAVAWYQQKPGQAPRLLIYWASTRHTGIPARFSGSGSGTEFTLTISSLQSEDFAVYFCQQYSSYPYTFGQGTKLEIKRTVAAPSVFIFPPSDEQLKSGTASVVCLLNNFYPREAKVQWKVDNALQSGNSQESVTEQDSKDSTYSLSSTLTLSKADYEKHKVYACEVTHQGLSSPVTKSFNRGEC
chain: SQQIYGVVYGNVTFHVPSNVPLKEVLWKKQKDKVAELENSEFRAFSSFKNRVYLDTVSGSLTIYNLTSSDEDEYEMESPNITDTMKFFLYVLESGGGGSDKTHTCPPCPAPELLGGPSVFLFPPKPKDTLMISRTPEVTCVVVAVSHEDPEVKFNWYVDGVEVHNAKTKPREEQYASTYRVVSVLTVLHQDWLNGKEYKCKVSNKALAAPIEKTISKAKGQPREPQVYTLPPCREEMTKNQVSLWCLVKGFYPSDIAVEWESNGQPENNYKTTPPVLDSDGSFFLYSKLTVDKSRWQQGNVFSCSVMHEALHNRYTQKSLSLSPGK
notes: also called CD19_NEG218_CD3_16nM-CD58 Trispecific; αCD19(NEG218)-αCD3-CD58IgV
B4: CD3hi TSP1 (R variant) (other)
heavy: QVQLVQSGAEVKKPGASVKVSCKASGYTFTTYWIQWVRQAPGQRLEWMGAVYPGDADTRYTQKFQGRVTLTADRSASTAYMELSSLRSEDTAVYYCGRDAGLEYYALDYWGQGTLVTVSSASTKGPSVFPLAPSSKSTSGGTAALGCLVKDYFPEPVTVSWNSGALTSGVHTFPAVLQSSGLYSLSSVVTVPSSSLGTQTYICNVNHKPSNTKVDKRVEPKSCGGGGSGGGGSEVQLVESGGGLVQPGGSLKLSCAASGFTFNTYAMNWVRQASGKGLEWVGRIRSKYNNYATYYADSVKDRFTISRDDSKSTLYLQMNSLKTEDTAVYYCVRHGNFGNSYVSWFAYWGQGTLVTVSSGGGGSGGGGSGGGGSGGGGSQAVVTQEPSLTVSPGGTVTLTCRSSTGAVTTSNYANWVQQKPGQAPRGLIGGTNKRAPWTPARFSGSLLGDKAALTLSGAQPEDEAEYFCALWYSNLWVFGGGTKLTVLGGGGSDKTHTCPPCPAPELLGGPSVFLFPPKPKDTLMISRTPEVTCVVVAVSHEDPEVKFNWYVDGVEVHNAKTKPREEQYASTYRVVSVLTVLHQDWLNGKEYKCKVSNKALAAPIEKTISKAKGQPREPQVCTLPPSREEMTKNQVSLSCAVKGFYPSDIAVEWESNGQPENNYKTTPPVLDSDGSFFLVSKLTVDKSRWQQGNVFSCSVMHEALHNHYTQKSLSLSPGK
light: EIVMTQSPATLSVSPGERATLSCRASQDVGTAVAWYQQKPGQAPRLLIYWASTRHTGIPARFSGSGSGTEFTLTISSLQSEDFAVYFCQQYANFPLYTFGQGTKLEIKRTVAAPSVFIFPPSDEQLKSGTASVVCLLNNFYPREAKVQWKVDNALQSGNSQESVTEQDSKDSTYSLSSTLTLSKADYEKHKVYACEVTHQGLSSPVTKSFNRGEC
chain: B3 chain
notes: also called CD19_NEG258_CD3_16nM-CD58 Trispecific; αCD19(NEG258)-αCD3(16 nM)-αCD58IgV
B5: CD58_IgV (ligand)
chain: SQQIYGVVYGNVTFHVPSNVPLKEVLWKKQKDKVAELENSEFRAFSSFKNRVYLDTVSGSLTIYNLTSSDEDEYEMESPNITDTMKFFLYVLESGGGGSHHHHHHHH
notes: also called CD58 domain 1; IgV WT
B6: CD58 IgV V45C_M114C (ligand)
chain: B5 chain with V16C, M85C
notes: Disulfide-stabilized variant
B7: CD58 IgV V54C_G88C (ligand)
chain: B5 chain with V25C, G59C
notes: Disulfide-stabilized variant
B8: CD58 IgV V45C_M105C (ligand)
chain: B5 chain with V16C, M76C
notes: Disulfide-stabilized variant

For the assay “CD58 Full ECD”, the target named is B2. As to the kind of experiment: ITC; 100 uM CD2 titrated into 10 uM CD58 variant in HBS. The method, then: (§1) To ensure the binding affinity remained uncompromised by the additional of the stabilizing disulfide variance, isothermal calorimetry (ITC) was performed on the resulting recombinant CD58 proteins to determine their apparent KD and binding stoicheometry (n) to recombinant human CD2.
(§2) Briefly, recombinant human CD2 and recombinant human CD58 variants were dialyzed into HEPES-buffered saline (HBS). CD2 was diluted to final concentration of 100 μM, CD58 variants were diluted to 10 μM. CD2 was titrated into 10 μM of CD58 variants via multiple injections and ΔH (kcal/mole) determined using a MicroCal VP-ITC isothermal titration calorimeter (Malvern). Titrations of CD2 into HBS were used as a reference and KD and n determined from the resulting data.

Assay [1] has as its target B1. The description is as above. The method, then:
as §1, §2

Assay [2] deals with T1, human CD19. In words: flow cytometry on murine 300.19 cells overexpressing human CD19; serial dilutions; anti-human Fc Alexa-647 secondary.
In assay [3] the target is T1, human CD19. As to the kind of experiment: flow cytometry on 300.19 cells overexpressing human CD19 (figure legend). (In general: Flow cytometry measures light scatter and fluorescence of single cells or particles in a stream.)

Substitutions are numbered along the chain they refer to.

As a reminder, the Kd is the concentration at which binding is half-saturated. In the case of B1, the Kd with CD58 Full ECD came to 570 nM.

As to B2, the “n (binding stoichiometry)” value in assay [1] was found to be 0.92.

On to B3, for which the binding result in the assay with human CD19 [2] is on record as “binds”.

For B4, in the assay with human CD19 [3], the binding result is reported as “binds”.

Consider B5, for which, in assay [1], the Kd stood at 610 nM and the “n (binding stoichiometry)” value came out at 0.96.

In the case of B6, in assay [1], the Kd was found to be 380 nM and the “n (binding stoichiometry)” value was determined as 0.88.

Take B7: in assay [1], the Kd came out at 600 nM and the “n (binding stoichiometry)” value was 0.83.

With B8, in assay [1], the dissociation constant (Kd) amounted to 880 nM and the “n (binding stoichiometry)” value is 0.97.
